Bridge positions count the residues as written; N and C are the ends. Square brackets hold non-standard residues; d marks the D form. Bip = N[C@@H](Cc1ccc(-c2ccccc2)cc1)C(=O)O; 1Nal = N[C@@H](Cc1cccc2ccccc12)C(=O)O; 2Nal = N[C@@H](Cc1ccc2ccccc2c1)C(=O)O; NMeR = CN[C@@H](CCCNC(=N)N)C(=O)O; Tic = O=C(O)[C@@H]1Cc2ccccc2CN1; β3hE = N[C@@H](CCC(=O)O)CC(=O)O; Aic = NC1(C(=O)O)Cc2ccccc2C1; NMeK = CN[C@@H](CCCCN)C(=O)O; Pen = CC(C)(S)[C@H](N)C(=O)O; dNMeK = CN[C@H](CCCCN)C(=O)O
B1: SEQ ID NO 18 (peptide)
peptide: Ac-[Pen][NMeR]SDTL[Pen][1Nal]E[dNMeK]-NH2
modifications: disulfide 1-7
SMILES: CC(=O)N[C@@H]1C(=O)N(C)[C@@H](CCCNC(=N)N)C(=O)N[C@@H](CO)C(=O)N[C@@H](CC(=O)O)C(=O)N[C@@H]([C@@H](C)O)C(=O)N[C@@H](CC(C)C)C(=O)N[C@H](C(=O)N[C@@H](Cc2cccc3ccccc23)C(=O)N[C@@H](CCC(=O)O)C(=O)N(C)[C@H](CCCCN)C(N)=O)C(C)(C)SSC1(C)C
B2: SEQ ID NO 15 (peptide)
peptide: Ac-[Pen][NMeR]SDTL[Pen][2Nal]E[dNMeK]-NH2
modifications: disulfide 1-7
SMILES: CC(=O)N[C@@H]1C(=O)N(C)[C@@H](CCCNC(=N)N)C(=O)N[C@@H](CO)C(=O)N[C@@H](CC(=O)O)C(=O)N[C@@H]([C@@H](C)O)C(=O)N[C@@H](CC(C)C)C(=O)N[C@H](C(=O)N[C@@H](Cc2ccc3ccccc3c2)C(=O)N[C@@H](CCC(=O)O)C(=O)N(C)[C@H](CCCCN)C(N)=O)C(C)(C)SSC1(C)C
B3: SEQ ID NO 51 (peptide)
peptide: Ac-[Pen][NMeR]SDTL[Pen]W[Aic][dK]-NH2
modifications: disulfide 1-7
SMILES: CC(=O)N[C@@H]1C(=O)N(C)[C@@H](CCCNC(=N)N)C(=O)N[C@@H](CO)C(=O)N[C@@H](CC(=O)O)C(=O)N[C@@H]([C@@H](C)O)C(=O)N[C@@H](CC(C)C)C(=O)N[C@H](C(=O)N[C@@H](Cc2c[nH]c3ccccc23)C(=O)NC2(C(=O)N[C@H](CCCCN)C(N)=O)Cc3ccccc3C2)C(C)(C)SSC1(C)C

Molecular target: α4β1 (R&D Systems #5668-A4) (UniProt P13612)
Assay: α4β1-VCAM competition ELISA

| IC50 [nM] | Binder |
| --- | --- |
| > 100 | Ac-[Pen][NMeR]SDTL[Pen][1Nal][dE][dNMeK]-NH2 (disulfide 1-7 (inferred); also: homodimer via DIG linker) [SEQ ID NO 38] |
| > 100 | Ac-[Pen][NMeR]SDTL[Pen][2Nal]E[dNMeK]-NH2 (disulfide 1-7 (inferred); also: homodimer via DIG linker) [SEQ ID NO 41] |
| > 100 | Ac-[Pen][NMeR]SDTL[Pen][1Nal][dE][dK]-NH2 (disulfide 1-7 (inferred); also: homodimer via DIG linker) [SEQ ID NO 32] |
| > 500 | Ac-[Pen][NMeR]SDTL[Pen][1Nal][β3hE][NMeK]-NH2 (disulfide 1-7 (inferred); also: homodimer via DIG) [SEQ ID NO 142] |
| > 100 | Ac-[Pen][NMeR]SDTL[Pen][2Nal]Y[dK]-NH2 (disulfide 1-7 (inferred); also: homodimer via DIG) [SEQ ID NO 23] |
| > 1000 | Ac-[Pen][NMeR]SDTL[Pen][2Nal][β3hE][dK]-NH2 (disulfide 1-7 (inferred); also: homodimer via DIG) [SEQ ID NO 137] |
| > 1000 | Ac-[Pen][NMeR]SDTL[Pen][Tic][β3hE]-NH2 (disulfide 1-7 (inferred)) [SEQ ID NO 154] |
| > 100 | Ac-[Pen][NMeR]SDTL[Pen][1Nal]E[dK]-NH2 (disulfide 1-7 (inferred); also: homodimer via DIG) [SEQ ID NO 24] |
| > 500 | B1 |
| > 100 | Ac-[Pen][NMeR]SDTL[Pen][Bip]E[dK]-NH2 (disulfide 1-7 (inferred); also: homodimer via DIG) [SEQ ID NO 134] |

Molecular target: rh integrin α4β7 (R&D Systems #5397-A30) (human) (UniProt P13612)
Assay: α4β7-MAdCAM competition ELISA

| IC50 [nM] | Binder |
| --- | --- |
| < 10 | B2 |
| < 10 | Ac-[Pen][NMeR]SDTL[Pen][1Nal][dE][dNMeK]-NH2 (disulfide 1-7 (inferred); also: homodimer via DIG linker) [SEQ ID NO 38] |
| > 10 | Ac-[Pen][NMeR]SDTL[Pen][2Nal][dE][dK]-NH2 (disulfide 1-7 (inferred)) [SEQ ID NO 9] |
| > 25 | B3 |
| < 10 | Ac-[Pen][NMeR]SDTL[Pen][2Nal]E[dNMeK]-NH2 (disulfide 1-7 (inferred); also: homodimer via DIG linker) [SEQ ID NO 41] |
| < 10 | Ac-[Pen][NMeR]SDTL[Pen][1Nal][dE][dK]-NH2 (disulfide 1-7 (inferred); also: homodimer via DIG linker) [SEQ ID NO 32] |
| < 10 | Ac-[Pen][NMeR]SDTL[Pen][1Nal][β3hE][NMeK]-NH2 (disulfide 1-7 (inferred); also: homodimer via DIG) [SEQ ID NO 142] |
| < 10 | Ac-[Pen][NMeR]SDTL[Pen][2Nal][β3hE][dK]-NH2 (disulfide 1-7 (inferred); also: homodimer via DIG) [SEQ ID NO 137] |
| < 10 | Ac-[Pen][NMeR]SDTL[Pen][1Nal]E[dK]-NH2 (disulfide 1-7 (inferred); also: homodimer via DIG) [SEQ ID NO 24] |
| > 10 | B1 |
| < 10 | Ac-[Pen][NMeR]SDTL[Pen][Bip]E[dK]-NH2 (disulfide 1-7 (inferred); also: homodimer via DIG) [SEQ ID NO 134] |

Molecular target: α4β7 integrin on human cells (human, UniProt P13612 34-1032; P26010 20-798)
Assay: cell-based or functional assay

| α4β7 cell (Hu) IC50 [nM] | PBMC IC50 [nM] | Binder |
| --- | --- | --- |
| ≤ 10 | – | Ac-[Pen][NMeR]SDTL[Pen][1Nal][dE][dNMeK]-NH2 (disulfide 1-7 (inferred); also: homodimer via DIG linker) [SEQ ID NO 38] |
| > 100 | – | Ac-[Pen][NMeR]SDTL[Pen][2Nal][dE][dK]-NH2 (disulfide 1-7 (inferred)) [SEQ ID NO 9] |
| ≤ 10 | – | Ac-[Pen][NMeR]SDTL[Pen][2Nal]E[dNMeK]-NH2 (disulfide 1-7 (inferred); also: homodimer via DIG linker) [SEQ ID NO 41] |
| > 10 | – | Ac-[Pen][NMeR]SDTL[Pen][1Nal][dE][dK]-NH2 (disulfide 1-7 (inferred); also: homodimer via DIG linker) [SEQ ID NO 32] |
| ≤ 10 | > 50 | Ac-[Pen][NMeR]SDTL[Pen][1Nal][β3hE][NMeK]-NH2 (disulfide 1-7 (inferred); also: homodimer via DIG) [SEQ ID NO 142] |
| ≤ 10 | – | Ac-[Pen][NMeR]SDTL[Pen][2Nal]Y[dK]-NH2 (disulfide 1-7 (inferred); also: homodimer via DIG) [SEQ ID NO 23] |
| ≤ 10 | – | Ac-[Pen][NMeR]SDTL[Pen][2Nal][β3hE][dK]-NH2 (disulfide 1-7 (inferred); also: homodimer via DIG) [SEQ ID NO 137] |
| > 100 | – | Ac-[Pen][NMeR]SDTL[Pen][Tic][β3hE]-NH2 (disulfide 1-7 (inferred)) [SEQ ID NO 154] |
| ≤ 10 | – | Ac-[Pen][NMeR]SDTL[Pen][1Nal]E[dK]-NH2 (disulfide 1-7 (inferred); also: homodimer via DIG) [SEQ ID NO 24] |
| ≤ 10 | – | Ac-[Pen][NMeR]SDTL[Pen][Bip]E[dK]-NH2 (disulfide 1-7 (inferred); also: homodimer via DIG) [SEQ ID NO 134] |

Molecular target: α4β7 integrin on mouse TK1 cells (mouse, UniProt Q00651 41-1039; P26011 20-806)
Sequence (Q00651 41-1039, chain 1 of 2): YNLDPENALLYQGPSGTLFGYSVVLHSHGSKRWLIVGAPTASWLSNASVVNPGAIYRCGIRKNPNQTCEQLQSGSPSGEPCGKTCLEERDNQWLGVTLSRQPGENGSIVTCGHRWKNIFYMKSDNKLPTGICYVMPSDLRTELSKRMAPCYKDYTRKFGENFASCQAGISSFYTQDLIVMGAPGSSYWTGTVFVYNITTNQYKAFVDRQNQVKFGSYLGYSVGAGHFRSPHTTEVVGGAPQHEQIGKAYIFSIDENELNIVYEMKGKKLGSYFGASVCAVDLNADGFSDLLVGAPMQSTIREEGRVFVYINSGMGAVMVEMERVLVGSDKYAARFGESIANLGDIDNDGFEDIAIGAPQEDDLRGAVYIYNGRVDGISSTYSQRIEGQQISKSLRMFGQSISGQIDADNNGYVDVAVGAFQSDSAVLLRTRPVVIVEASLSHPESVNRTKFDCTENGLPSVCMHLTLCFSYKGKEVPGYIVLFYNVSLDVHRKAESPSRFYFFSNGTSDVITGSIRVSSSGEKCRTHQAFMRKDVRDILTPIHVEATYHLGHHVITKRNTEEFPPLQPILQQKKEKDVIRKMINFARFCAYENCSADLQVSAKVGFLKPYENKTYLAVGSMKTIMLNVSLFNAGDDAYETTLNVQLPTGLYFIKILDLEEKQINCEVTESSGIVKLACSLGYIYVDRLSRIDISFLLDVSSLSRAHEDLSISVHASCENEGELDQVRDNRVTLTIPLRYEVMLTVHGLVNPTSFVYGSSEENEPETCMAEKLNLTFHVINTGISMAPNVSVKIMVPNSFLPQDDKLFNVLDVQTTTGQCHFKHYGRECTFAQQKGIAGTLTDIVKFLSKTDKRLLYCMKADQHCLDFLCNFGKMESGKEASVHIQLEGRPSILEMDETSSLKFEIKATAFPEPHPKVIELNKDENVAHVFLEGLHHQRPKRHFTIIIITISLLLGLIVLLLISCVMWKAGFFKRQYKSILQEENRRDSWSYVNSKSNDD
Sequence (P26011 20-806, chain 2 of 2): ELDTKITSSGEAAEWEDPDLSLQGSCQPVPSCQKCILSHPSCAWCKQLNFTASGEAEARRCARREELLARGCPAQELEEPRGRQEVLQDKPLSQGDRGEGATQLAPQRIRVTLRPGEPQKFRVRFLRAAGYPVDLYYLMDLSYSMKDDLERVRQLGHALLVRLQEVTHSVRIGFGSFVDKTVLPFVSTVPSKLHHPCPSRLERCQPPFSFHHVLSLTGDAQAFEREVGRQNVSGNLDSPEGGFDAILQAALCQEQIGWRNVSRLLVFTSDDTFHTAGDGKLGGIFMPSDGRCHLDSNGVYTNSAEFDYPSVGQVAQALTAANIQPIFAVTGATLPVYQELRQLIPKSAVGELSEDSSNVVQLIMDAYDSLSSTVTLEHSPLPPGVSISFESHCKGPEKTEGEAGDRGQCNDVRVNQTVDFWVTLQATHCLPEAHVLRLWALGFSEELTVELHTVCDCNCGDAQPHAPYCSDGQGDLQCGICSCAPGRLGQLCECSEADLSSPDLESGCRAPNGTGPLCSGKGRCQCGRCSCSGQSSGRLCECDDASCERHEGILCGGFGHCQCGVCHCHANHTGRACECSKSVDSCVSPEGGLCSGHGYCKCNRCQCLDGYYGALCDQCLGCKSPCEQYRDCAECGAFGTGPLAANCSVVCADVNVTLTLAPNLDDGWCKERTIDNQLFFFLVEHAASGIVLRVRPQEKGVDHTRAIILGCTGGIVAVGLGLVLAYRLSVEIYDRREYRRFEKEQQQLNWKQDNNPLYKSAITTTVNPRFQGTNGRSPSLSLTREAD
Assay: cell-based or functional assay

| α4β7 cell(Mu) IC50 [nM] | Binder |
| --- | --- |
| > 1000 | Ac-[Pen][NMeR]SDTL[Pen][Tic][β3hE]-NH2 (disulfide 1-7 (inferred)) [SEQ ID NO 154] |

Reference: US20160159862A1 (PROTAGONIST THERAPEUTICS, published 2016)
